Binding result and Kd data for six molecules are collected here from patent US20130237684A1 (RESEARCH CORPORATION TECHNOLOGIES, published 2013).

The term Kd denotes a measure of binding affinity in units of concentration.

One series deals with T1, Yeast ubiquitin (Sigma) (yeast, UniProt P0CG63 1-76).
T1 construct: mature; also called soluble ubiquitin; free ubiquitin
The series is described as follows: clone isolated by phage display selection on ubiquitin; listed as ubiquitin-binding monobody.

Series [1] concerns the molecule itself. The series is described as follows: self-association seen by NMR line broadening.
The target in series [2] is T2, C-terminal fragment of CD92 (FNfn10 cleaved in the CD loop) (human, UniProt P02751 1578-1631).
T2 construct: Start at residue 43 is inferred from the N-terminal fragment ending at Asn42
The series is described as follows: size exclusion chromatography of the mixed fragments of CD92. How it is done:
Size exclusion chromatography was performed on the fragments of CD92 using a Sephadex75 gel filtration column.

The target in series [3] is T2, C-terminal fragment of CD92 (FNfn10 …). Description: Trp fluorescence titrations, extrapolated to no urea, 750 mM glycerol. How it is done: (§1) Proteins were dissolved to a final concentration of 500 nM in 20 mM sodium phosphate buffer at pH 6.0 containing 100 mM sodium chloride, 750 mM glycerol unless otherwise noted and various urea concentration between 1 M and 2.5 M. Urea concentration was determined using an Abbe refractometer (Spectronic Instruments) as described (Pace and Sholtz 1997). To obtain ([…] on the reconstitution at conditions without the addition of urea and glycerol, a series of C-terminal fragment-titration experiments with varying urea or glycerol concentrations, respectively, were performed. The dissociation constants in the absence of urea or glycerol were estimated by extrapolation based on experimental data
(§2) A dissociation constant can be determined from a titration experiment where the concentration of the fluorophore is held constant and its corresponding binding partner is added. […] When measuring the dissociation constant, the concentration of the fluorophore has to be lower than or near the dissociation constant. To obtain a more accurate value, a series of titration experiments were performed at higher urea concentration, followed by subsequent extrapolation to compensate for the addition of urea.

Series [4] has the same target. Description: Trp fluorescence titrations, extrapolated to plain buffer in the reverse order. How it is done: as §2
(§3) To gain an extrapolation that excluded both glycerol and urea, a stepwise approach was taken that assumed that the two co-solutes had independent effects on the dissociation constant.

Series [5] has the same target. Description: Trp fluorescence titrations, extrapolated to plain buffer (no urea, no glycerol). The procedure: as §2, §3
Series [6] has the same target. Description: Trp fluorescence titration, 750 mM glycerol, 1 M urea, about 500 nM N-terminal fragment. The procedure:
as §1, §2

For the next series, the target named is T3, FN(C)-STAV11.
T3 construct: also called C-FN3-STAV11
T3 chain: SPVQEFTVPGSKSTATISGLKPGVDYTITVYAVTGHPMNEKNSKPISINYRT
The series is described as follows: flow cytometry of mated yeast: surface C-FN3-STAV11 by anti-V5/FITC, captured secreted N-FN3 by anti-FLAG/PE. For orientation: Flow cytometry measures light scatter and fluorescence of single cells or particles in a stream.

Square brackets hold non-standard residues; d marks the D form. Ends that are not written are not given here. * marks the point of attachment. hSer(lactone) = O=C1OCC[C@@H]1N*

T2 sequence (P02751 other isoform, or with tags, fused parts or gaps): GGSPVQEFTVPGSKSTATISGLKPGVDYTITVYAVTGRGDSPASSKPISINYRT
T1 sequence (P0CG63 1-76 limits assumed): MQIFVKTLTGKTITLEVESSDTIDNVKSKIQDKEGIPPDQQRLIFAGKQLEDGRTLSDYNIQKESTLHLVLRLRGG

B1: ubiquitin-binding monobody 212 (Fn3 with BC loop CWRRA and FG loop RWVGLAW), phage clone (designed binder, not shown: large carriers; small tags and cut ends)
chain: VSDVPRDLEVVAATPTSLLISWDAPCWRRAYYRITYGETGGNSPVQEFTVPGSKSTATISGLKPGVDYTITVYAVTGRWVGLAWSKPISINYRT
notes: also called clone 212
In the case of B1, the binding result with Yeast ubiquitin (Sigma) was “binds”.

B2: ubiquitin-binding monobody 215 (Fn3 with BC loop CNWRR and FG loop RAYRYRW), phage clone (designed binder, not shown: large carriers; small tags and cut ends)
chain: VSDVPRDLEVVAATPTSLLISWDAPCNWRRYYRITYGETGGNSPVQEFTVPGSKSTATISGLKPGVDYTITVYAVTGRAYRYRWSKPISINYRT
notes: also called clone 215
As for B2, in the series with Yeast ubiquitin (Sigma), the binding result is “binds”.

B3: ubiquitin-binding monobody 213 (Fn3 with BC loop CKHRR and FG loop FADLWWR), phage clone (designed binder, not shown: large carriers; small tags and cut ends)
chain: VSDVPRDLEVVAATPTSLLISWDAPCKHRRYYRITYGETGGNSPVQEFTVPGSKSTATISGLKPGVDYTITVYAVTGFADLWWRSKPISINYRT
notes: also called clone 213
Consider B3, for which, in the series with Yeast ubiquitin (Sigma), the binding result was “binds”.

B4: ubiquitin-binding monobody 214 (Fn3 with BC loop CRRGR and FG loop RGFMWLS), phage clone (designed binder, not shown: large carriers; small tags and cut ends)
chain: VSDVPRDLEVVAATPTSLLISWDAPCRRGRYYRITYGETGGNSPVQEFTVPGSKSTATISGLKPGVDYTITVYAVTGRGFMWLSSKPISINYRT
notes: also called clone 214
With B4, the binding result in the series with Yeast ubiquitin (Sigma) is recorded as “binds”.

B5: N-terminal fragment of CD92 (D7KE9Q FNfn10 cleaved by cyanogen bromide at the GGMGG insertion in the CD loop) (other)
chain: VSDVPRKLQVVAATPTSLLISWDAPAVTVRYYRITYGETGGNGG[hSer(lactone)]
modifications: not fully specified
notes: also called mutant CD-loop fragment
Turning to B5, the binding result in series [1] is “binds”. Further, the Kd in series [2] was below 1000 nM; in series [3], around 1.5 nM; in series [4] it was 3.9 nM; in series [5], 3.6 nM; in series [6], around 10 nM.

B6: N-FN3 (residues 1-42) followed by the FLAG tag, secreted from yeast (other)
chain: VSDVPRDLEVVAATPTSLLISWDAPAVTVRYYRITYGETGGN
notes: also called wild-type N-terminal fragment; pGalsecFN(N)FLAG; not shown: FLAG tag
Consider B6, for which the binding result in the series with FN(C)-STAV11 is reported as “binds”.
